# Test results as given in the supplement of paper PMC9170038.
# Test system: MS2 coat protein
# Assay: apparent KD of MS2 coat protein; higher = weaker reporter binding
# Settings: Eterna round: R107; input ligand: none
# In short: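 Designed RNA switches, transcribed on-chip from Illumina sequencing clusters, were titrated with SNAP-549-labelled MS2 coat protein from 0.7 or 1.5 nM to 3 µM in twofold steps. The solution was 100 mM Tris-HCl pH 7.5, 80 mM KCl, 4 mM MgCl2, with constant ligand or without it. Apparent KD is the median over each design's normalised cluster binding-curve fits.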
row,Sequence,apparent KD of MS2 coat protein [nM]
1,GGUGGCUCCAUCGAUACCAGCCACCACCGAUAGACCACAUGAGGAUCACCCAUGUUGGGUGGCCCUUGGCAGCGGUGAAGCUGCC [#1 Same State - Theophylline B Attempt #4 (HarryS)],304
2,GACAGAAACUGAAGGAGCGAGGUAAAACGGGAUGAGCAAACAUGAGGAUCACCCAUGUGGCCUCAGGUAGGUCGCAGAAAGAAAC [Exclusion Arginine B GF24],130
3,UGGCGAGAAGGAAGGAGCGUCAGCUGAGUUACAUGAGGAUCACCCAUGUUGCACAUAGUGUGACAGGUAGGUCGCCUUCUGCCCU [SS-ArgB19],44.1
4,UUUUUUUUGGGAAGGAGCGGGAACAUGUGGAUCUCCCAUGUACAUGAGGAUCACCCAUGUACCCAGGUAGGUCGCCCAUUUUUUU [Exclusion - Arginine B],102
5,CGUGGUGGGACGGAUACCAGCCACCGCGGCAACGCAACAUGAGGAUCACCCAUGUUGGGUGGCCCUUGGCAGCUGUGCUGCGACG [#1 Same State - Theophylline B Attempt #28 (HarryS)],182
6,UAACAUGAGGAUCACCCAUGUUUGGAGAAACGAGGACCGGUACGGCCGCCACUCGAGGAGUGGAUGAGAAGUGGGAUAGAGUGAU [Same State Trp A GF6],19.6
7,AGCAAGCAACAUGAGGAUCACCCAUGUGAAGGAGCGCCGAAUAAGGCAGGUAGGUCGCACAUGAAUAAAUCAUGUAAAAGCUUGC [MAT - Exclusion Arginine A - Mod of Eli - D23],185
8,AAUAACAUGAGGAUCACCCAUGUAAGUGGGCGAGGACCGGUACGGCCGCCACUCGGAUGAUGUUGACGAAAAGUCAGCAUCAUCA [#OpenEnded 2 #GuTurnoff #Tail],24.7
9,AAUGGUGGAACGAAGUACAGGAGUACAAAUCGAGGACCGGUACGGCCGCCACUCGCGAAAGAACAUGAGGAUCACCCAUGUAAAA [theeternabot_exclusion_MS2_Trp_A_34],8.09
10,AAUCAUGGAAACAUGACAUGAGGGUUGCUCCGAGGACCGGUACGGCCGCCACUCGCGAGGAGGCGGACAUGAGGAUCACCCAUGU [#05 Tryptophan A Same State],252
11,UUAAUCAUAUUAGAAAACUAAUAUGCAGAAGGAGCGUGAUAAAACACAGGUAGGUCGCUGAAGGGAACAUGAGGAUCACCCAUGU [AstrosSSArgA#8],25.7
12,CGGUCGGUCGGCCGGUGAUUAUGGGAUGAAGGAGCGUGGGAAGCUACAGGUAGGUCGCAUCCGAACCAUGAGGAUCACCCAUGGU [SSArg A #23Alt-Ms2 Mod],25.1
13,CACAUGAGGAUCACCCAUGUCUGAACUGAAGGAGCGCUAAACAAGGCAGGUAGGUCGCGGAAUCCUGUGUGCAUAUGCACACGGG [9.W],18
14,GGCCUAGCGAGCGCUCGCUAGGCCGCGGAUACCAGCGAGGUCCAUCGCCCUUGGCAGCCGAACAUGAGGAUCACCCAUGUCGGUA [#1 Same State - Theophylline A Attempt #15 (HarryS)],10.3
15,CGCAACCAACAUGAGGAUCACCCAUGUGAAGGAGCGCCGAAUAAGGCAGGUAGGUCGCACAUGAAUAAAUCAUGAAGGAAGCGAA [XArg-A 12 NuPack],36.8
16,GAGUUGUGCUCAGGCCCGACUCGCUGAGAAGGAGCGCACUAAGGUGCAGGUAGGUCGCUCAGGAAUACAUGAGGAUCACCCAUGU [Erlaatti],22.9
17,GCAUCCUAGUCGGCCGCCACUGCGAAUAGGUCCUGAGUGAUCUAACAUGAGGAUCACCCAUGUAGCAGGACCGGGACUAGGAUGC [(Trp1)-(TM)''-(TM)'-(Ms2)-(Trp2)_Design5],16.5
18,AGUACUCGAACGGAUACCAGCCGGACAUGAGGAUCACCCAUGUCCUACCAUUGUUCGGUUGGCCCUUGGCAGCCGUUCGUGUACA [Omei Theo B SS A v4],930
19,GGUGACUGCAUGUGGAAUUAAGGUAGGGAAGGAGCGCGGUAAGACGCAGGUAGGUCGCCCUACAUGAGGAUCACCCAUGUGGUGU [Beenmaer],121
20,UCGCUCUGGGUGGGAUCCGGAGAUGUGGAAGGAGCGCUGGAAACAGCAGGUAGGUCGCCAACGGACAUGAGGAUCACCCAUGUAC [Same State - Arginine A (Freestyle 18)],26.5

# Same assay, conditions: Eterna round: R107; input ligand: theophylline 20 uM
row,Sequence,apparent KD of MS2 coat protein [nM]
1,GGUGGCUCCAUCGAUACCAGCCACCACCGAUAGACCACAUGAGGAUCACCCAUGUUGGGUGGCCCUUGGCAGCGGUGAAGCUGCC [#1 Same State - Theophylline B Attempt #4 (HarryS)],416
2,GACAGAAACUGAAGGAGCGAGGUAAAACGGGAUGAGCAAACAUGAGGAUCACCCAUGUGGCCUCAGGUAGGUCGCAGAAAGAAAC [Exclusion Arginine B GF24],183
3,GCACCAGGUACGGAUACCAGCUAUAGGCCCAAUGGGCGACAUGAGGAUCACCCAUGUGAUGGCCCUUGGCAGCUGUACCUGGUGC [SSThB NP+V+V2 #9],193
4,AACUAAUCACAUGAGGAUCACCCAUGUGAUACCAGCUAAUCCCAAAGCCCUUGGCAGCACCUUUGGGUCCCGGUGUGUUUGAACA [Onceesa],12.3
5,UGGCGAGAAGGAAGGAGCGUCAGCUGAGUUACAUGAGGAUCACCCAUGUUGCACAUAGUGUGACAGGUAGGUCGCCUUCUGCCCU [SS-ArgB19],63.7
6,UUUUUUUUGGGAAGGAGCGGGAACAUGUGGAUCUCCCAUGUACAUGAGGAUCACCCAUGUACCCAGGUAGGUCGCCCAUUUUUUU [Exclusion - Arginine B],94.7
7,ACAUGAGGAUCACCCAUGUUCCUCAUUGAUACCAGUGAAUUUAGACGCCCUUGGCAGCGAGUUUAAGAAGAAGAAGUUUUUUUUU [6.C],819
8,UAUAUGGUGAUGGAUACCAGCAGAGAAAACGUUUAUCCUAACAUGAGGAUCACCCAUGUAUGCCCUUGGCAGCUGUUGUUAUAUA [8.M],42.3
9,CGUGGUGGGACGGAUACCAGCCACCGCGGCAACGCAACAUGAGGAUCACCCAUGUUGGGUGGCCCUUGGCAGCUGUGCUGCGACG [#1 Same State - Theophylline B Attempt #28 (HarryS)],191
10,UAACAUGAGGAUCACCCAUGUUUGGAGAAACGAGGACCGGUACGGCCGCCACUCGAGGAGUGGAUGAGAAGUGGGAUAGAGUGAU [Same State Trp A GF6],19.6
11,AGCAAGCAACAUGAGGAUCACCCAUGUGAAGGAGCGCCGAAUAAGGCAGGUAGGUCGCACAUGAAUAAAUCAUGUAAAAGCUUGC [MAT - Exclusion Arginine A - Mod of Eli - D23],164
12,AAUAACAUGAGGAUCACCCAUGUAAGUGGGCGAGGACCGGUACGGCCGCCACUCGGAUGAUGUUGACGAAAAGUCAGCAUCAUCA [#OpenEnded 2 #GuTurnoff #Tail],31.3
13,GCCGGUACGUCGGCAAAGCCGAUGUGCCAGCGAGGACCGGUACGGCCGCCACUCGUACAUGAGGAUCACCCAUGUCCGGUCCGGC [Omei Trp SS A C v1],62.5
14,AAUGGUGGAACGAAGUACAGGAGUACAAAUCGAGGACCGGUACGGCCGCCACUCGCGAAAGAACAUGAGGAUCACCCAUGUAAAA [theeternabot_exclusion_MS2_Trp_A_34],21.8
15,UUUUAAAGCAUGGCGUAUCGGAAAACCGAUACCAGUACAGAAAUGUACCCUUGGCAGCGGAAUUUUACAUGAGGAUCACCCAUGU [Ex Theophylline A 1],19.7
16,UCAUAAGUACCGGUCCUCAGAUCCUCAUGACGAGGACCGGUACGGCCGCCACUCGAAACAUGAGGAUCACCCAUGUAAUAAUACU [Brourdmod15],37.9
17,CCGCCCUACCGCGAUACCAGUACGGCAGUUAACAUGAGGAUCACCCAUGUGCAAACAUAAUACCCUUGGCAGCGCCUGAAUCCAU [theeternabot_sameState_MS2_Theo_B_12],29.2
18,AAUCAUGGAAACAUGACAUGAGGGUUGCUCCGAGGACCGGUACGGCCGCCACUCGCGAGGAGGCGGACAUGAGGAUCACCCAUGU [#05 Tryptophan A Same State],280
19,GGAGUCGUCACGGCCGCCACUGCGGUGGUGUGACAUGAGGAUCACCCAUGUUGUCAUGCGGCCCUUAGGACCGGGUGUCGGUUCC [#1 Exclusion - Tryptophan B Attempt #23 (HarryS)],85.1
